The record followed here is patent US20220002395A1 (FAPON BIOTECH, published 2022).

The labels stand for the following.
T1: Plasmodium falciparum histidine-rich protein II (HRP-II) (Plasmodium falciparum, UniProt P05227 22-332)
T1 construct: Coating antigen of all ELISAs; also called HRP-II protein; MA-HRPII Ag protein
T1 sequence (looked up): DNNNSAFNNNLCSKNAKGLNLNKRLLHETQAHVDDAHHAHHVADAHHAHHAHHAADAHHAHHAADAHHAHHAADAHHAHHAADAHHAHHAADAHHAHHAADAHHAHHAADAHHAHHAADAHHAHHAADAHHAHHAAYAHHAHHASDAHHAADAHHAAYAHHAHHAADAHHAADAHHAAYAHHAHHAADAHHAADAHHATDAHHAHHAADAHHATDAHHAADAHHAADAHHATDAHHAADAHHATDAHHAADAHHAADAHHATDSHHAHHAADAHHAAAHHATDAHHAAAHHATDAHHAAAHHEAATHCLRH

B1: WT 1-1 (antibody, mouse IgG2b, kappa, V domains shown)
VH: EVQLQQSGPEVVKPGASVKISCKASGYTITEYYMNWVKQSHGKGLEWIGDVNPINGGTPYQQKFRDKATLTVDKSSNTAYMELRSLTSEDSALYYCTKGAEEYWGQGTTLTVSS
VL: DVVLTQTPLSLSVTIGQPASISCKSSQSLLYSNGKIYINWFQQRPGQSPKRLMYQISKIEPGIPDRFSGSGSETDFTLKISRVEAEDLGVYYCLQATYSPNTFGGGTKLEIKR
notes: WT as framework
B2: WT 1-5 (antibody, mouse IgG2b, kappa, V domains shown)
VH: B1 VH with V51L, N55Q, K98R
VL: B1 VL with N33Q, I56L, E60D
notes: WT as framework
B3: WT 1-2 (antibody, mouse IgG2b, kappa, V domains shown)
VH: B1 VH with Y27T, I29L, V51I, N55Q, Q61N, K98R
VL: B1 VL with L29I, N33Q, I56L, E60D, S99T
notes: WT as framework
B4: WT 1-4 (antibody, mouse IgG2b, kappa, V domains shown)
VH: B1 VH with Y27T, I29L, Q61N
VL: B1 VL with L30I, N33Q, S99T
notes: WT as framework
B5: WT 1-3 (antibody, mouse IgG2b, kappa, V domains shown)
VH: B1 VH with Y27S, V51L
VL: B1 VL with L29I, L30I, I56V, A96G, S99Y
notes: WT as framework
B6: Mutation 1-37 (antibody, mouse IgG2b, kappa, V domains shown)
VH: B1 VH with E31D, V51I, P59A, E102D
VL: B1 VL with I38L, I59L, S99Y, N101Q
notes: Mutation 1 as framework
B7: Mutation 1-32 (antibody, mouse IgG2b, kappa, V domains shown)
VH: B1 VH with E31D, N55Q, P59A, K98R, E102D
VL: B1 VL with I38L, I56L, I59L, E60D, S99Y, N101Q
notes: Mutation 1 as framework
B8: Mutation 1-35 (antibody, mouse IgG2b, kappa, V domains shown)
VH: B1 VH with E31D, N55Q, P59A, K98R, E102D
VL: B1 VL with I38L, I56V, I59L, S99Y, N101Q
notes: Mutation 1 as framework
B9: Mutation 1-39 (antibody, mouse IgG2b, kappa, V domains shown)
VH: B1 VH with Y27T, I29L, E31D, V51L, P59A, E102D
VL: B1 VL with I38L, I56L, I59L, S99T, N101Q
notes: Mutation 1 as framework
B10: Mutation 1-50 (antibody, mouse IgG2b, kappa, V domains shown)
VH: B1 VH with E31D, N55Q, P59A, K98R, E102D
VL: B1 VL with I38L, I56L, I59L, S99Y, N101Q
notes: Mutation 1 as framework
B11: Mutation 1-41 (antibody, mouse IgG2b, kappa, V domains shown)
VH: B1 VH with I29L, E31D, P59A, E102D
VL: B1 VL with L29I, I38L, I56V, I59L, S99Y, N101Q
notes: Mutation 1 as framework
B12: Mutation 1-47 (antibody, mouse IgG2b, kappa, V domains shown)
VH: B1 VH with Y27S, E31D, P59A, Q61N, E102D
VL: B1 VL with L29I, N33Q, I38L, I56V, I59L, N101Q
notes: Mutation 1 as framework
B13: Mutation 1-46 (antibody, mouse IgG2b, kappa, V domains shown)
VH: B1 VH with E31D, V51I, P59A, Q61N, K98R, E102D
VL: B1 VL with L29I, N33Q, I38L, I56V, I59L, E60D, A96G, S99T, N101Q
notes: Mutation 1 as framework
B14: Mutation 1-48 (antibody, mouse IgG2b, kappa, V domains shown)
VH: B1 VH with E31D, V51L, N55Q, P59A, Q61N, K98R, E102D
VL: B1 VL with N33Q, I38L, I59L, E60D, A96G, S99Y, N101Q
notes: Mutation 1 as framework
B15: Mutation 1-45 (antibody, mouse IgG2b, kappa, V domains shown)
VH: B1 VH with E31D, V51L, P59A, Q61N, E102D
VL: B1 VL with L29I, N33Q, I38L, I56L, I59L, A96G, S99Y, N101Q
notes: Mutation 1 as framework
B16: Mutation 1-33 (antibody, mouse IgG2b, kappa, V domains shown)
VH: B1 VH with Y27T, I29L, E31D, V51L, N55Q, P59A, Q61N, E102D
VL: B1 VL with I38L, I56L, I59L, A96G, N101Q
notes: Mutation 1 as framework
B17: Mutation 1-49 (antibody, mouse IgG2b, kappa, V domains shown)
VH: B1 VH with I29L, E31D, V51I, N55Q, P59A, Q61N, E102D
VL: B1 VL with N33Q, I38L, I59L, S99T, N101Q
notes: Mutation 1 as framework

Where a chain is given by its changes, count along the chain named.

The target in the first assay is T1, Plasmodium falciparum histidine-rich …. Briefly: indirect ELISA, four antigen coating concentrations.
Broadly, the Kd is the concentration at which binding is half-saturated. For the molecule B1, the dissociation constant (Kd) was 0.521 nM. That is a sub-nanomolar value.
As to B2, the Kd came to 0.311 nM. This Kd lies about 1.7-fold lower than the previous one.
Still for that read-out and setting: in the case of B3 it was 0.0856 nM.
B4 displayed a Kd of 0.582 nM. This Kd is about 6.8-fold higher than that of the molecule before.
With B5, the affinity, expressed as Kd, was 0.0923 nM.

For the next assay the target is unchanged. The assay is described as above. The source holds these as a separate data set.
Experimental: The OD values corresponding to different antibody concentrations with different coating concentrations are obtained. Under the same coating concentration, the antibody concentrations are used as an abscissa, the 00 values are used as an ordinate, and a logarithmic plot is made. […] An average value thereof is taken and a reciprocal thereof is calculated to get the affinity constant KD.
Consider B6, for which the dissociation constant (Kd) was 0.365 nM.
Take B7: binding was put at a Kd of 0.244 nM.
On the same count and under the same terms, in the case of B8 it was 0.521 nM; in that of B9, 0.233 nM.
B10 showed a Kd of 0.382 nM. Compared with the last molecule, the Kd is about 1.6-fold higher.
Molecule B11 yielded a dissociation constant (Kd) of 0.302 nM.
Turning to B12, binding was put at a Kd of 0.0828 nM.
In turn, B13 registered a Kd of 0.0721 nM.
The molecule B14 registered a dissociation constant Kd of 0.333 nM.
The molecule B15 returned a Kd of 0.384 nM.
On the same count and under the same terms, in the case of B16 it was 0.169 nM; in that of B17, 0.0956 nM.
